The target in assay [1] is T1, P26 (alanine substituted, FIG. 3 panel E).
T1 construct: also called Y236 to alanine
In words: ELISA: 500 ng peptide coated per well, 29E4 at 40 ng/mL, HRP goat anti-rabbit Ig 1:16,000, ABS 450 nm, duplicates [CONT. 2]. An excerpt: (§1) HRP Goat anti-rabbit Ig was applied at 1:16,000 dilution in all reactions.
(§2) Peptides were synthesized to achieve ≥70% HPLC purity by a commercial vendor (GenScript Biotech, Piscataway, NJ). Peptides were reconstituted in either water, or with addition of acetonitrile, methanol, 10% acetic acid, or DMSO, depending on the overall charge of each peptide. Key residues required for mAb binding were probed by ELISA using overlapping peptides, truncated peptides and alanine substituted peptides. Reactions were performed in duplicate using NUNC 96-well flatbottom MaxiSorp plates (Thermo Scientific). After coating each well with 500 ng of peptide in 100 μL coating buffer (50 mM NaHCO₃, pH 9.6), the plates were sealed and incubated at 4° C. overnight. […] Plates were then washed once with wash buffer, incubated with 100 μL mAb 29E4 (serially diluted from 1 mg/mL) for 1 hour at 37° C. Plates were further washed four times with wash buffer, and then incubated at 37° C. with 100 μL of a horse radish peroxidase (HRP)-conjugated secondary antibody against the primary antibody, diluted 1:16,000 according to manufacturer's protocols (KPL, Inc., Gaithersburg, MD). After washing four times with wash buffer, 100 μL of K-Blue Aqueous TMB substrate (Neogen, Lexington, KY) was added to the plates and incubated uncovered for 30 minutes at room temperature. To stop the reaction, 100 μL of 2 N Sulphuric acid was added to each well and absorbance were measured immediately at 450 nm. All dilutions of reagents were performed in ELISA diluent (20% NGS in 1×PBS with 0.1% Triton-X 100).

Assay [2] addresses T2, P7 (alanine substituted, FIG. 3 panel E).
T2 construct: not the overlapping peptide P7 of panels A and C; also called E217 to alanine
The description is as above.
Excerpt: as §1, §2

Assay [3] addresses T3, P21 (alanine substituted, FIG. 3 panel E).
T3 construct: also called Y231 to alanine
The description is as above.
Excerpt: as §1, §2

Assay [4] addresses T4, P11 (alanine substituted, FIG. 3 panel E).
T4 construct: also called P221 to alanine
Described as above.
Excerpt: as §1, §2

The target of assay [5] is T5, P20 (alanine substituted, FIG. 3 panel E).
T5 construct: also called E230 to alanine
The description is as above.
Excerpt: as §1, §2

Assay [6] deals with T6, P9 (alanine substituted, FIG. 3 panel E).
T6 construct: also called N219 to alanine
Described as above.
Excerpt: as §1, §2

Assay [7] deals with T7, P19 (alanine substituted, FIG. 3 panel E).
T7 construct: also called Q229 to alanine
The description is as above.
Excerpt: as §1, §2

Assay [8] deals with T8, P14 (alanine substituted, FIG. 3 panel E).
T8 construct: also called P224 to alanine
The description is as above.
Excerpt: as §1, §2

The target of assay [9] is T9, P28 (alanine substituted, FIG. 3 panel E).
T9 construct: also called H238 to alanine
Described as above.
Excerpt: as §1, §2

The target in assay [10] is T10, FLAG-SPDEF (NM_012391) (UniProt O95238 1-335).
T10 construct: Expressed in HEK-293 cells and tested as cell lysate on an immunoblot; also called SAM pointed domain-containing ETS transcription factor; not shown: FLAG tag
T10 sequence (looked up): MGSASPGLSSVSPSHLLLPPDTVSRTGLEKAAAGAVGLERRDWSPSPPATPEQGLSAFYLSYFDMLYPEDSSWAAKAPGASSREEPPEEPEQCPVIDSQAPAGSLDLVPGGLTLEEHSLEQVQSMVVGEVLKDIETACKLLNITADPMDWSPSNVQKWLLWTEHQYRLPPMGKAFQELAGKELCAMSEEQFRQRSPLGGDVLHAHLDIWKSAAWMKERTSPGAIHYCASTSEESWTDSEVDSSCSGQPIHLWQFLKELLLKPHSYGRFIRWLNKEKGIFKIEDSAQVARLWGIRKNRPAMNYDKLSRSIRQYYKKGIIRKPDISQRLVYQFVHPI
In words: immunoblot of cell lysates (HEK-293 2 µg per lane) probed with 29E4; the protein is shown present in panels D and F. The protocol:
Immunoblots using antibodies against ETV1 (A and H), ETV4 (B), ERG (C), SPDEF (D), FLI1 (E), FLAG (F), and GAPDH (G), as a loading control. […] PC3 cells were transfected with 25 nM non-targeting (NT) siRNA or ETV-1 siRNA oligos (lanes 1 and 2, respectively). […] were infected with either a control vector (lane 10) or adenoviral vector expressing FLI1 (lanes 11).
Cell lysates were then cleared by centrifugation at 10,000×g for 15 minutes at 4° C. and transferred to fresh tubes. Protein concentration was measured using Protein Assay Reagent (Bio-Rad, Hercules, CA). […] Separated proteins were transferred onto PVDF membranes using a Trans-Blot SD semi-dry transfer cell (BioRad) at 25 V for 90 minutes. Membranes were blocked in blocking buffer (Tris buffered saline with 0.25% Tween 20 (TBST) containing 1% BSA) for one hour at room temperature before incubation with primary antibodies (1 ng/mL) for 12 hours at 4° C. Membranes were then washed with wash buffer (TBST) in three ten-minute washes before treatment with IRDye 680RD conjugated goat anti-rabbit or IRDye 800 RD conjugated goat anti-mouse secondary antibodies (LI-COR Biosciences, Lincoln, NE) for three hours at room temperature.

T9 sequence (peptide, as listed by the source): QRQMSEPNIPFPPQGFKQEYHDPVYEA
T7 sequence (peptide, as listed by the source): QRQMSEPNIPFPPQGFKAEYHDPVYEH
T8 sequence (peptide, as listed by the source): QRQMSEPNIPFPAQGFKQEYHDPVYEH
T3 sequence (peptide, as listed by the source): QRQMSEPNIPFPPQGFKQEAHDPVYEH
T6 sequence (peptide, as listed by the source): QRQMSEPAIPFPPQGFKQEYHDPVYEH
T1 sequence (peptide, as listed by the source): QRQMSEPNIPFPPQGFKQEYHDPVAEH
T2 sequence (peptide, as listed by the source): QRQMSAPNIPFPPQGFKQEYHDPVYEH
T5 sequence (peptide, as listed by the source): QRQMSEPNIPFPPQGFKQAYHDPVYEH
T4 sequence (peptide, as listed by the source): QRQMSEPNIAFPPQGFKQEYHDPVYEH

B1: ETV1 rabbit monoclonal antibody (29E4) (antibody, V domains shown)
VH: QELEESGGDLVKPGASLTLTCTASGFFFSAENHICWVRQAPGKGLEWIGCVYIGSYVGGSGDPYYASWAKGRFTISKTSSTTVTLQMSSLTAADTATYFCARDLGSLWGPGTLVTVSS
VL: DVVMTQTASSVSAAVGGTVTIACQSSQSVYDNNNLAWFQQKPGQPPKRLIYSASTLASGVSSRFKGSGYGTQFTLTISDVQCDDAATYYCVGAFSGYIFVFGGGTEVVVK
notes: constant regions are not; also called 29E4 mAb; ETV1 29E4 mAb
In the case of B1, the binding result in assay [1], in [2], in assay [3], in assay [4], in assay [5] and in assay [6] was “binds” each time. In addition, the binding result in assay [7] is “binds”; in assay [8], “binds”; in assay [9] it was “binds”; in assay [10] it was “no binding”.

The values are drawn from US20260227403A1 (HENRY M JACKSON FOUNDATION FOR THE ADVANCEMENT OF MILITARY …, published 2026).
